Source: the domain aggregation screens of Martell et al. (2025)

Assay: soluble fraction after stress (log2 fold change); higher = more stays soluble; pooled small domains, quantitative proteomics
Conditions: stress: 50 degC
Outline: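 The stress applied to every library was 50°C. These custom libraries of small protein domains were pooled and measured at high throughput with quantitative proteomics as the read-out. Aggregation propensity is expressed as the base-two logarithm of the fold change in how much of each protein remains soluble. The higher the value, the more of that protein stays in solution.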
With “HMGTELSYSEFLNKVEAGEVTNVTIRGPEITFQTGNSSYTTYAPDDPKLIEHLTAKGVAIKAGP” the “soluble fraction (log2)” value was 0.216. In the case of “HMIDELNVGDIRFYLNRYGKEIQIEIIRIGDDGSVYARTMADNALFRVPEARLKNIGEKVPAEEVQRG”, the “soluble fraction (log2)” value is reported as -0.742. With “HMRPSGTAGILRYLSSGAIRGIGATTAQRLVSEFGEKTLDVMENEPERVAMLKGISKSKAEDFSLQLKQS” the “soluble fraction (log2)” value was 0.0105. With “HMKAPPLTDREKEILRWVAAGLQNKEIAHKLGISLATVRNHIHNILEKLDVHSKLEAVSLAFRQGWVS” the “soluble fraction (log2)” value was -0.0741. With “HMPVSVAEQKQILAEALQERGHATFRELIENADNRMIVVGRFLALLELYRDGTVRFEQERALGELTIHWEE” the “soluble fraction (log2)” value was -0.318. In the case of “HMDNRLFKMLYYLLDKERATAPELAAEFEVSTRTIYRDVEALSSAGIPIYAEPGRNGGIYLLQD”, the “soluble fraction (log2)” value is reported as -2.21. In the case of “HMHQALLEQSAEHAQQVKAYELLLTAERALDEENTEAFLSAMKSLKPLAENLDAKGKALYQELLPFVTEA”, the “soluble fraction (log2)” value is reported as -0.0088. With “HMSYIGEEKAKSIAVSNVKGAGTNNVVKVEFDYDDGRAVYEVKVVYNAMEYEFEIDASNGKILSRDAESIY” the “soluble fraction (log2)” value was -0.309. In the case of “HMLRVGASVTANGKYWYDSYGSKPFGTANNLSTTVTRIVPGNPYPIHIGSYGWLQESQIQIT”, the “soluble fraction (log2)” value is reported as -1.03. In the case of “HMSSHNIALDQDVVVTQLKGKVYLVAADGSQKQLAEGDILPKDAVLITPEGASFKGGNQTFTLS”, the “soluble fraction (log2)” value is reported as 0.17. In the case of “HMKKYFPPKSRFNPNKYLLKDWMALGLSEKQSQSILNFIQRGIYSNSALEKIYVMPEEVFTLIKDSTYYEE”, the “soluble fraction (log2)” value is reported as -1.34. For “HMASSRPLAEGDFVRLRAGGATGRIESIKGQKATVQMGGLKVHAPLRDLLPVAEPIKQVSTASNT”, the “soluble fraction (log2)” value was 0.0407. In the case of “HMNSNKFANAAAVAVAEKPADSYNPLFIYGPSGVGKTHLLYAIANEIHKHHPDYNIVYIKGDQFTNELIN”, the “soluble fraction (log2)” value is reported as -0.0439. In the case of “HMNSVSARRSAAITAISTGRIHSQEDLVQALKKAGYPVTQATASRDIEEIGAVRIRNQKGEMVYAIS”, the “soluble fraction (log2)” value is reported as 0.264. In the case of “HMVRSLESESVYDRQRAYEIAYQLRTEERPYSFIATQLNKAGLRPQKAARYEWYSVQELLRSA”, the “soluble fraction (log2)” value is reported as -0.956. With “HMNSTGVYQRPDGFWEYRFTLSINGKKLPRRKSTDLMGNKLKTKREAIKAREEAIIALRTEKTI” the “soluble fraction (log2)” value was -0.994. For “HMAQLPPTATARATSDVSGLTASAALRTLLEQGFVPQIHGSGKVSRQHPPAGTLLEPGSTIQLFLEPS”, the “soluble fraction (log2)” value was 0.354. In the case of “HMNTEFDVPDVVGKTLDEAEFVLKGSNLKRGLIMPVDDPSKAPGTIVRQNPEAGAGNKIRVGDVVDLWVVG”, the “soluble fraction (log2)” value is reported as 0.168. With “HMLSEKELLELLNRAKSNYNGITKKGIEAIALKYQGYSNVEIANLYHVKANHISAWISRARSRLKADY” the “soluble fraction (log2)” value was 0.193. For “HMAPDDTAVWSAFIGWFRTAPDGPNPLGAYAAKLGEEGLDAAEVGRRMTVIVRLFAEKPEGAEVFYDRTYA”, the “soluble fraction (log2)” value was -0.875. With “HMTKGVKVEIGTEEASVDLYVVMEYGTPIQKAAYDAQESVRKAIETMTNLHVVRVDVHVQGVSF” the “soluble fraction (log2)” value was -0.134. With “HMTAGTGIAYSEFRSKVQEGQVKDVAIAPDRITGTLSSGQKFSTVPVNDPGLPKMLDDFNVKYSGQA” the “soluble fraction (log2)” value was 0.104. For “HMKVIAEESYRILVDAIEKLPPQMKSIMQLALEGKSNPEIAETLNISGETVHSQKKIAYRKLRVYLKD”, the “soluble fraction (log2)” value was -1.17. With “HMRTVEQFQIRKIYAISNALGISDSRADEDELHVLVSGLTGKDSIKELTYREASVVIERLEELQ” the “soluble fraction (log2)” value was -2.54. With “HMQTMTDDQVMQYVISQQEKGATQQDIVSKLLQKGVTVDQMRRIRKKYEAQQSQPGALDLTGSS” the “soluble fraction (log2)” value was 0.209. In the case of “HMAADRRKAERPLIDGQAVMDRFEVGPGPMVGKALKFLLALKRAEPDLDLAGTEERLDAWWNEQL”, the “soluble fraction (log2)” value is reported as 0.262. For “HMNLTEIGQRIRDRREELGLSQDRLAKLGGLPRVTINQLETGSIGDLGVSKLLNLLDLLGLTLDA”, the “soluble fraction (log2)” value was -0.108. For “HMDFGHWAAHKLEQMSEYRLRHGEAVAIGIALDVLYSVRQGLLARPAAERILSLLERLGFTLFDPELKS”, the “soluble fraction (log2)” value was -0.213. With “HMENFIPDDPKRIEIGMSVLHQRFGKGKVMQLEGNLPDMKATVNFEGEGQKQLLLKYARLKIV” the “soluble fraction (log2)” value was -0.232. In the case of “HMENVQLRNFAIKATEAGIIKLSSDQRTFMWASNQKKLMTVPFDEHPYSAMAQFFKTDEGLAVFKSIEKKL”, the “soluble fraction (log2)” value is reported as -1.12.
